From patent US20140315822A1 (INSTITUT PASTEUR, published 2014)

Experiments:
[1] = biological target: 453
[2] = biological target: 443
[3] = biological target: 455
[4] = biological target: 460
[5] = biological target: 461
[6] = biological target: 439

B1: PDZ domain of the human MAST2 protein (other)
chain: MRPPIIIHRAGKKYGFTLRAIRVYMGDSDVYTVHHMVWHVEDGGPASEAGLRQGDLITHVNGEPVHGLVHTEVVELILKSGNKVAISTTPLEN
Kd [1]: 238 nM
Kd [2]: 400 nM
Kd [3]: 130 nM
Kd [4]: 188 nM
Kd [5]: 126 nM
Kd [6]: 210 nM
